In US20040254139, “Oligonucleotides antagonist for human tumor necrosis factor alpha (TNF-alpha)” (published 2004):

Experiments:
[1] = target: T1, TNF-alpha (tumor necrosis factor alpha) (Homo sapiens, UniProt P01375 P01375:77-233); assay: ELONA; affinity and inhibition activity stated unchanged; conditions: chain copies: 3
[2] = target: T1, TNF-alpha (tumor necrosis factor alpha); assay: ELONA; affinity unchanged; still positive at 3 ng/ml; conditions: chain copies: 3

T1 sequence (P01375 77-233, one chain of several): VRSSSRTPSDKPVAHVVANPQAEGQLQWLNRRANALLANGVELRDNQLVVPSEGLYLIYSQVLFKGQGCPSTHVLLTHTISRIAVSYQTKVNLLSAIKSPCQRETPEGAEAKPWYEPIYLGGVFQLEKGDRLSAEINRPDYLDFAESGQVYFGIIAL

B1: truncated modified SEQ 20 (ssRNA)
RNA: GCUUAGCAAACGCACCGCACAGGCCCGCGG
modifications: 2'-F and 2'-NH2 pyrimidines (printed 2-fluorin and 2-amido)
B1: binds [1].

B2: truncated amino-modified SEQ 25 (ssRNA)
RNA: CCUCAUAGACUACUGUUAAGCCUCGAGG
modifications: 2'-NH2 pyrimidines (printed 2-amido)
B2: binds [2].
